Reference: patent US20220175781A1, “CD40L COMPOSITIONS AND METHODS FOR TUNABLE REGULATION” (Obsidian Therapeutics, Inc., priority 2019, published 2022)
One block for each molecule: values may come before it.

Experiments:
[1] = molecular target: OT-001661 (MH Linker; CD40L; stop) (human) (UniProt P29965); assay: cell-based or functional assay
[2] = molecular target: OT-001669 (Linker (MH); CD40L (aa 14-261 of WT); stop) (human) (UniProt P29965); assay: cell-based or functional assay
[3] = molecular target: OT-001668 (Linker (MH); CD40L (aa 1-261 of WT, (S110-G116) del); stop) (human) (UniProt P29965); assay: cell-based or functional assay
[4] = tested on: HEK-Blue CD40; assay: HEK-Blue CD40 assay with sCD40L constructs; assay type: cell-based; details: ligand treated
[5] = tested on: HEK293T cells; assay: Soluble CD40L ELISA, transiently transfected HEK293T cells; assay type: cell-based, human; details: soluble CD40L +Ligand versus Vehicle, HEK293T cells
Experimental: Soluble CD40L (sCD40L) constructs OT-001672, OT-001686, OT-001673, OT-001674, OT-001677, and OT-001684 were transiently transfected into HEK293T cells. Cells were treated with one of the following ligands 1 μM Shield-1, 50 μM TMP, 1 μM Bazedoxifene (BZD) or vehicle control.
The pg/mL levels of soluble CD40L were measured by ELISA (Table 14). Recombinant soluble CD40L was used as the standard in the experiments.

[6] = tested on: HEK293T cells; assay: Linker length, ER regulated CD40L surface expression, transfected HEK293T cells; assay type: cell-based, human; details: 1 μM Bazedoxifene 24 hours
Experimental: To explore the effect of linker length in the DD mediated regulation of CD40L, constructs with varying linker lengths were generated. OT-001966, OT-001965, OT-001967, OT-001666 constructs were generated and are presented here in decreasing linker length order. HEK293T cells were transiently transfected with these constructs and treated with 1 μM Bazedoxifene for 24 hours. Median fluorescence intensity, an indicator of surface expression of CD40L, was analyzed by flow cytometry.

[7] = tested on: T cells (CD4 and CD8 positive); assay: Bazedoxifene dose response, CD40L MFI in CD4 and CD8 positive T cells (day 4, freeze/thaw, restimulation); assay type: cell-based
Experimental: Dose response with Bazedoxifene in T cells were conducted for OT-001966, OT-001967, OT-001666. Expression of CD40L was measured at (a) day 4 after transduction, (b) after freezing and thawing the cells or (c) after freezing and thawing the cells followed by restimulation with CD3/CD28 beads. The CD40L MFI (median fluorescence intensity) within CD4 and CD8 positive subpopulations is shown in Table 34 and Table 35 respectively.

[8] = tested on: Jurkat cells; assay: Linker length, ER regulated CD40L, % CD40L positive Jurkat cells; assay type: cell-based
Experimental: Jurkat cells were lentivirally transduced and 24 hours after transduction were treated with DMSO or 1 μM Bazedoxifene for another 24 hours and analyzed by flow cytometry for surface expression of CD40L. […] In Table 33, SR indicates stabilization ratio.

[9] = tested on: T cells (CD4+ and CD8+); assay: Regulation of CD40L in T cells by different drug responsive domains; assay type: cell-based

CD40L levels in supernatant (shedding, ELISA) of Jurkat cells cultured 6 hours with 1.25 µg/ml hCD40-Fc; untreated 1382.06 [1]: 3600
CD40L levels in supernatant (shedding, ELISA) of Jurkat cells cultured 6 hours with 1.25 µg/ml hCD40-Fc; untreated 2137.69 [2]: 8440
CD40L levels in supernatant (shedding, ELISA) of Jurkat cells cultured 6 hours with 1.25 µg/ml hCD40-Fc; untreated 10 [3]: 10
Molecule: recombinant human CD40-Fc receptor (from UniProt P25942 21-193) (Fc fusion)

B1: OT-001672: Soluble CD40L (sCD40L) construct (protein)
chain: GSMHMQKGDQNPQIAAHVISEASSKTTSVLQWAEKGYYTMSNNLVTLENGKQLTVKRQGLYYIYAQVTFCSNREASSQAPFIASLCLKSPGRFERILLRAANTHSSAKPCGQQSIHLGGVFELQPGASVFVNVTDPSQVSHGTGFTSFGLLKL
functionality in HEK-Blue CD40 assay [4]: higher functionality
Stabilization Ratio [5]: 3.3

B2: OT-001966: ER regulated CD40L construct, longest linker (protein)
chain: MSLALSLTADQMVSALLDAEPPILYSEYDPTRPFSEASMMGLLTNLADRELVHMINWAKRVPGFVDLTLHDQVHLLECAWMEILMIGLVWRSMEHPGKLLFAPNLLLDRDQGKCVEGGVEIFDMLLATSSRFRMMNLQGEEFVCLKSIILLNSGVYTFLSSTLKSLEEKDHIHRVLDKITDTLIHLMAKAGLTLQQQHQRLAQLLLILSHIRHMSNKRMEHLYSMKCKNVVPLSDLLLEMLDAHRLGGSGGGSGGGSGMIETYNQTSPRSAATGLPISMKIFMYLLTVFLITQMIGSALFAVYLHRRLDKIEDERNLHEDFVFMKTIQRCNTGERSLSLLNCEEIKSQFEGFVKDIMLNKEETKKENSFEMQKGDQNPQIAAHVISEASSKTTSVLQWAEKGYYTMSNNLVTLENGKQLTVKRQGLYYIYAQVTFCSNREASSQAPFIASLCLKSPGRFERILLRAANTHSSAKPCGQQSIHLGGVFELQPGASVFVNVTDPSQVSHGTGFTSFGLLKL
percentage of cells with high CD40L surface expression, ranking of constructs [6]: highest percentage of cells with high CD40L surface expression
CD40L expression (MFI) ([7]; CD4+ cells, Day 4, Bazedoxifene 0.01 nM): 415
CD40L expression (MFI) ([7]; CD4+ cells, Day 4, Bazedoxifene 0.1 nM): 499
CD40L expression (MFI) ([7]; CD4+ cells, Day 4, Bazedoxifene 1 nM): 545
CD40L expression (MFI) ([7]; CD4+ cells, Day 4, Bazedoxifene 10 nM): 616
CD40L expression (MFI) ([7]; CD4+ cells, Day 4, Bazedoxifene 100 nM): 1028
CD40L expression (MFI) ([7]; CD4+ cells, Day 4, Bazedoxifene 1000 nM): 1551
CD40L expression (MFI) ([7]; CD4+ cells, Day 4, Bazedoxifene 10000 nM): 1095
CD40L expression (MFI) ([7]; CD4+ cells, Post Thaw, Bazedoxifene 0.01 nM): 183
CD40L expression (MFI) ([7]; CD4+ cells, Post Thaw, Bazedoxifene 0.1 nM): 185
CD40L expression (MFI) ([7]; CD4+ cells, Post Thaw, Bazedoxifene 1 nM): 193
CD40L expression (MFI) ([7]; CD4+ cells, Post Thaw, Bazedoxifene 10 nM): 213
CD40L expression (MFI) ([7]; CD4+ cells, Post Thaw, Bazedoxifene 100 nM): 258
CD40L expression (MFI) ([7]; CD4+ cells, Post Thaw, Bazedoxifene 1000 nM): 292
CD40L expression (MFI) ([7]; CD4+ cells, Post Thaw, Bazedoxifene 10000 nM): 577
CD40L expression (MFI) ([7]; CD4+ cells, Restim, Bazedoxifene 0.01 nM): 340
CD40L expression (MFI) ([7]; CD4+ cells, Restim, Bazedoxifene 0.1 nM): 340
CD40L expression (MFI) ([7]; CD4+ cells, Restim, Bazedoxifene 1 nM): 364
CD40L expression (MFI) ([7]; CD4+ cells, Restim, Bazedoxifene 10 nM): 472
CD40L expression (MFI) ([7]; CD4+ cells, Restim, Bazedoxifene 100 nM): 561
CD40L expression (MFI) ([7]; CD4+ cells, Restim, Bazedoxifene 1000 nM): 741
CD40L expression (MFI) ([7]; CD4+ cells, Restim, Bazedoxifene 10000 nM): 447
CD40L expression (MFI) ([7]; CD8+ cells, Day 4, Bazedoxifene 0.01 nM): 168
CD40L expression (MFI) ([7]; CD8+ cells, Day 4, Bazedoxifene 0.1 nM): 176
CD40L expression (MFI) ([7]; CD8+ cells, Day 4, Bazedoxifene 1 nM): 190
CD40L expression (MFI) ([7]; CD8+ cells, Day 4, Bazedoxifene 10 nM): 212
CD40L expression (MFI) ([7]; CD8+ cells, Day 4, Bazedoxifene 100 nM): 442
CD40L expression (MFI) ([7]; CD8+ cells, Day 4, Bazedoxifene 1000 nM): 669
CD40L expression (MFI) ([7]; CD8+ cells, Day 4, Bazedoxifene 10000 nM): 438
CD40L expression (MFI) ([7]; CD8+ cells, Post Thaw, Bazedoxifene 0.01 nM): 113
CD40L expression (MFI) ([7]; CD8+ cells, Post Thaw, Bazedoxifene 0.1 nM): 117
CD40L expression (MFI) ([7]; CD8+ cells, Post Thaw, Bazedoxifene 1 nM): 121
CD40L expression (MFI) ([7]; CD8+ cells, Post Thaw, Bazedoxifene 10 nM): 148
CD40L expression (MFI) ([7]; CD8+ cells, Post Thaw, Bazedoxifene 100 nM): 204
CD40L expression (MFI) ([7]; CD8+ cells, Post Thaw, Bazedoxifene 1000 nM): 230
CD40L expression (MFI) ([7]; CD8+ cells, Post Thaw, Bazedoxifene 10000 nM): 375
CD40L expression (MFI) ([7]; CD8+ cells, Restim, Bazedoxifene 0.01 nM): 340
CD40L expression (MFI) ([7]; CD8+ cells, Restim, Bazedoxifene 0.1 nM): 340
CD40L expression (MFI) ([7]; CD8+ cells, Restim, Bazedoxifene 1 nM): 364
CD40L expression (MFI) ([7]; CD8+ cells, Restim, Bazedoxifene 10 nM): 472
CD40L expression (MFI) ([7]; CD8+ cells, Restim, Bazedoxifene 100 nM): 561
CD40L expression (MFI) ([7]; CD8+ cells, Restim, Bazedoxifene 1000 nM): 741
CD40L expression (MFI) ([7]; CD8+ cells, Restim, Bazedoxifene 10000 nM): 447
CD40L expression, ranking of constructs ([7]; CD8 positive cells, freeze/thaw followed by restimulation with CD3/CD28 beads): highest ER regulated CD40L expression
Percent of Jurkat cells expressing CD40L ([8]; 1 μM Bazedoxifene): 46%
SR ([8]; 1 μM Bazedoxifene versus DMSO, % CD40L positive Jurkat cells): 15.3
Percent of Jurkat cells expressing CD40L ([8]; DMSO): 3%
percentage of cells with high CD40L surface expression, ranking of constructs ([8]; Jurkat cells, 1 μM Bazedoxifene 24 hours): highest percentage of cells with high CD40L surface expression
CD40L positive ([9]; All Cells, 1 uM Baz): 58.1%
MFI ([9]; All Cells, 1 uM Baz): 490
CD40L positive ([9]; All Cells, DMSO): 14%
MFI ([9]; All Cells, DMSO): 174
CD40L positive ([9]; CD4+, 1 uM Baz): 62.8%
MFI ([9]; CD4+, 1 uM Baz): 543
CD40L positive ([9]; CD4+, DMSO): 17%
MFI ([9]; CD4+, DMSO): 197
CD40L positive ([9]; CD8+, 1 uM Baz): 42.3%
MFI ([9]; CD8+, 1 uM Baz): 339
CD40L positive ([9]; CD8+, DMSO): 2.2%
MFI ([9]; CD8+, DMSO): 95.6
